# Assay results from patent US20130047297A1, “POLYNUCLEOTIDE MOLECULES FOR GENE REGULATION IN PLANTS” (priority 2010, published 2013).
# d = 2'-deoxy (DNA); r = 2'-OH (RNA)
# B1: 198 by Palmer PDS dsRNA: dsRNA to positions 797-994 of SEQ ID NO:37 (nucleic acid, listed as Amaranthus palmeri)
# sense: ACCGATTCCTGCAGGAGAAACATGGTTCTAAGATGGCCTTCCTAGACGGAAACCCTCCAGAGAGGCTGTGCATGCCTATTGTTAAACACATCGAGTCACTAGGTGGTGAAGTTAAACTTAACTCTCGTATACAAAAGATTCAGTTGGACCAGAGTGGAAGCGTGAAGAGTTTTTTGCTAAATAACGGGAGGGAAATAC
# modifications: complementary strand
# B2: 678 by Palmer PDS dsRNA: dsRNA to positions 317-994 of SEQ ID NO:37 (nucleic acid, listed as Amaranthus palmeri)
# sense: TAGGAGGAAAGGTTGCAGCGTGGAAGGATGAGGATGGTGACTGGTATGAGACTGGGCTACATATATTCTTTGGGGCATATCCAAATGTCCAAAATCTATTTGGAGAACTTGGTATAAATGACCGACTGCAATGGAAGGAGCACTCTATGATTTTTGCAATGCCCAGCAAGCCCGGTGAATTCAGTCGCTTTGATTTTCCCGAAATCCTGCCTGCACCATTAAATGGCATATGGGCAATCCTAAGAAATAATGAAATGCTAACCTGGCCAGAAAAAATCAAGTTTGCCATTGGCTTGTTGCCTGCTATGGCAGGCGGACAGTCATATGTTGAAGCACAAGATGGTTTGAGTGTCCAAGAGTGGATGAGAAAACAAGGAGTACCCGATCGTGTAACTGATGATGTGTTTATTGCCATGTCAAAGGCACTGAACTTCATAAATCCCGATGAACTTTCAATGCAGTGCATCTTGATTGCTCTGAACCGATTCCTGCAGGAGAAACATGGTTCTAAGATGGCCTTCCTAGACGGAAACCCTCCAGAGAGGCTGTGCATGCCTATTGTTAAACACATCGAGTCACTAGGTGGTGAAGTTAAACTTAACTCTCGTATACAAAAGATTCAGTTGGACCAGAGTGGAAGCGTGAAGAGTTTTTTGCTAAATAACGGGAGGGAAATAC
# modifications: complementary strand
# B3: dsRNA targeting a 192 nt length: dsRNA to Nicotiana benthamiana PDS, positions 914-1105 of SEQ ID NO:38 (nucleic acid, listed as Nicotiana benthamiana)
# DNA: ACAGATTTCTTCAGGAGAAACATGGTTCAAAAATGGCCTTTTTAGATGGTAACCCTCCTGAGAGACTTTGCATGCCGATTGTGGAACATATTGAGTCAAAAGGTGGCCAAGTCAGACTAAACTCACGAATAAAAAAGATCGAGCTGAATGAGGATGGAAGTGTCAAATGTTTTATACTGAATAATGGCAGTA
# modifications: dsRNA of this region
# B4: HPPD anti-sense ssDNA oligonucleotides: 8 HPPD anti-sense ssDNA oligonucleotides (SEQ ID NOS:141-148) (nucleic acid)
# antisense 1: TCCGTAGCTTACATACCGAAG
# antisense 2: TCCAAGTGAATAGGAGAAACA
# antisense 3: AGCAGCTTCTGCGTCTTCTAC
# antisense 4: ACAGCACGCACGCCAAGACCG
# antisense 5: CGATGTAAGGAATTTGGTAAA
# antisense 6: CGAGGGGATTGCAGCAGAAGA
# antisense 7: GTAGGAGAATACGGTGAAGTA
# antisense 8: GACCCCAAGAAAATCGTCTGC
# modifications: DNA, backbone not given here
# B5: dsRNA targeting a 685 nt length: dsRNA to Nicotiana benthamiana PDS, positions 421-1105 of SEQ ID NO:38 (nucleic acid, listed as Nicotiana benthamiana)
# DNA: GCAAGAGATGTCCTAGGTGGGAAGGTAGCTGCATGGAAAGATGATGATGGAGATTGGTACGAGACTGGGTTGCACATATTCTTTGGGGCTTACCCAAATATGCAGAACCTGTTTGGAGAACTAGGGATTGATGATCGGTTGCAGTGGAAGGAACATTCAATGATATTTGCGATGCCTAACAAGCCAGGGGAGTTCAGCCGCTTTGATTTTCCTGAAGCTCTTCCTGCGCCATTAAATGGAATTTTGGCCATACTAAAGAACAACGAAATGCTTACGTGGCCCGAGAAAGTCAAATTTGCTATTGGACTCTTGCCAGCAATGCTTGGAGGGCAATCTTATGTTGAAGCTCAAGACGGTTTAAGTGTTAAGGACTGGATGAGAAAGCAAGGTGTGCCTGATAGGGTGACAGATGAGGTGTTCATTGCCATGTCAAAGGCACTTAACTTCATAAACCCTGACGAGCTTTCGATGCAGTGCATTTTGATTGCTTTGAACAGATTTCTTCAGGAGAAACATGGTTCAAAAATGGCCTTTTTAGATGGTAACCCTCCTGAGAGACTTTGCATGCCGATTGTGGAACATATTGAGTCAAAAGGTGGCCAAGTCAGACTAAACTCACGAATAAAAAAGATCGAGCTGAATGAGGATGGAAGTGTCAAATGTTTTATACTGAATAATGGCAGTA
# modifications: dsRNA of this region
# Key:
# Assay type in all cases: in vivo
# [1] = system: Glyphosate-sensitive Palmer amaranth (Amaranthus palmeri) plants; assay: HPPD, PPO, TIF anti-sense ssDNA with mesotrione, fomesafen, atrazine, plant height (Example 28, Tables 18 and 19); conditions: for Plant height (mm): four days after herbicide treatment
# Protocol: The herbicidal activity of ssDNA polynucleotides that target the enzymes […] and protoporphyrinogen oxidase (PPO), and a transcription initiation factor (TIF), and their effect on the herbicide activity when used in combination with the herbicides mesotrione, fomesafen, and atrazine in Palmer amaranth was investigated.
# Glyphosate-sensitive Palmer amaranth (Amaranthus palmeri) plants were grown in 4-inch square pots with Sun Gro® Redi-Earth seedling mix containing 3.5 kg/cubic meter Osmocote® 14-14-14 fertilizer in a greenhouse with 14 h photoperiod and a daytime temperature of 30 degrees Celsius and night temperature of 20 degrees Celsius. The plants were sub-irrigated as necessary.
# Plants at 10 to 15 cm height were pre-treated manually with 40 microliters (4 fully expanded mature leaves were treated with 10 microliters of solution per leaf on each plant) of a buffer-surfactant solution (as a control; 0.5% Silwet L-77 and 2% ammonium sulfate), or a buffer-surfactant-ssDNA polynucleotide mixture of the anti-sense oligonucleotides targetting HPPD, PPO, or TIF. Some plants were left untreated and were used as controls. […] Crop oil concentrate (COC) at 1% was added to all herbicide treatments. A low rate of each herbicide ([…], equivalent to ⅛ of the recommended field rate; […], equivalent to 1/22 of the recommended field rate; […], equivalent to ⅛ of the recommended field rate,) was used to be able to detect any improvement of herbicide activity by the oligonucleotide mixture.
# Plant height was determined at four days after herbicide treatment. Data were collected from one experiment with four replications per treatment.
# Palmer amaranth = assay: Combinations of EPSPS, TIF and ddATPase polynucleotides then glyphosate (Example 26, Tables 12 and 13)
# Protocol: Solutions of the polynucleotides were prepared and applied to the leaves of Palmer amaranth using the protocols described in Table 12.
# [2] = system: Palmer amaranth phytoene desaturase (PDS); assay: Sequence specificity of PDS dsRNA on Palmer amaranth, bleaching (Example 11); conditions: for bleaching of leaves: 0.6 micromolar polynucleotide, 40 microliters per plant, observed 3 days post treatment; for bleaching of leaves (FIG. 17): separate assay
# Protocol: Palmer amaranth plants having 16 copies of EPSPS and 5-8 inches high were treated with 0.1% Silwet L-77 solution freshly made with ddH2O. Four fully expanded leaves per plant were dipped into the Silwet L-77 solution for a few seconds, and allowed to dry for 30 minutes to 1 hour before application of the polynucleotide composition. Individual polynucleotide solutions were made for each of the 678 by Palmer PDS dsRNA, 198 by Palmer PDS dsRNA, the 685 by Nicotiana benthamiana PDS dsRNA, and the 192 by Nicotiana benthamiana PDS dsRNA (0.6 micromolar polynucleotide in 0.01% Silwet L-77, 5 mM sodium phosphate buffer, pH 6.8). 10 microliters of polynucleotide solution (or buffer as a control) was applied to the top surface of each of the four pre-treated leaves per plant to provide a total of 40 microliters for each plant. Plants were kept in a growth chamber, and leaf bleaching was observed 3 days post treatment.
# [3] = system: mRNA encoding phytoene desaturase in tobacco (Nicotiana benthamiana); assay: Topical PDS dsRNA on tobacco, bleaching (Example 4); conditions: for plant outcome: 15 days after treatment with dsRNA; for phytoene desaturase silencing, leaf bleaching: day 9 after dsRNA treatment, about 0.6 micromoles of dsRNA per plant; for Northern blot analysis, siRNAs corresponding to the dsRNAs: in vivo
# Excerpt: This example illustrates the utility of the polynucleotide molecules of the invention as herbicidal agents. Two dsRNA polynucleotide molecules were designed to target overlapping segments of mRNA encoding phytoene desaturase in tobacco (Nicotiana benthamiana). With reference to SEQ ID NO:2 and FIG. 5, a dsRNA targeting a 192 nt length (shown in bold in FIG. 5) and a 685 nt length (shown in underline in FIG. 5) of the mRNA were made using an Ambion® MEGAscript® kit. Separate dsRNA solutions were prepared. Tobacco plant leaves were pretreated with surfactant solution prepared as in Example 1 and then treated with either one of the dsRNA solutions applying about […] of dsRNA per plant.
# [4] = pre-treatment: Untreated, herbicide only (mesotrione 13, fomesafen 23, atrazine 170 grams per hectare of active ingredient, 1% COC)
# [5] = pre-treatment: Buffer (0.5% Silwet L-77 and 2% ammonium sulfate), herbicide 24 h later (mesotrione 13, fomesafen 23 grams per hectare, 1% COC)
# [6] = protocol 3, 29 g/acre, copy number 16, 13 DAT
molecule,measurement,setting,value
CCNc1nc(Cl)nc(NC(C)C)n1 [atrazine],Plant height (mm),[1]; [4],146 mm
CS(=O)(=O)NC(=O)c1cc(Oc2ccc(C(F)(F)F)cc2Cl)ccc1[N+](=O)[O-] [fomesafen],Plant height (mm),[1]; [5],139 mm
same,Plant height (mm),[1]; [4],158 mm
CS(=O)(=O)c1ccc(C(=O)C2C(=O)CCCC2=O)c([N+](=O)[O-])c1 [mesotrione],Plant height (mm),[1]; [5],179 mm
same,Plant height (mm),[1]; [4],180 mm
"IDT [2]: Palmer/EPSPS dsRNA, SEQ ID NO. 85, 86 (chain 1 AGUUGGUGGGCAAUCAUCAAUUG; chain 2 AACAAUUGAUGAUUGCCCACCAACUCU; chain 1: RNA, 3' dTdT, backbone not given here; chain 2: RNA, backbone not given here)",Results: % control,Palmer amaranth; [6],0% control
"IDT [3]: Palmer/EPSPS dsRNA, SEQ ID NO. 87, 88 (chain 1 GGUCGACAACUUGCUGUAUAGUGA; chain 2 AUCACUAUACAGCAAGUUGUCGACCUC; chain 1: sugars from the 5' end r23 d1, 3' dT, backbone not given here; chain 2: RNA, backbone not given here)",Results: % stunted,Palmer amaranth; [6],51% stunted
"IDT [4]: Palmer/EPSPS dsRNA, SEQ ID NO. 89, 90 (chain 1 UGCAAGGUCACCUGGACAGAGAAA; chain 2 UAUUCUCUGUCCAGGUGACCUUGCAAC; listed as RNA, chemistry not fully specified)",Results: % stunted,Palmer amaranth; [6],51% stunted
"IDT [5]: Palmer/EPSPS dsRNA (21-mer) with blunt ends, SEQ ID NO. 91, 92 (chain 1 AACAUGAACAAAAUGCCAGAU; chain 2 AUCUGGCAUUUUGUUCAUGUU; RNA, backbone not given here)",Results: % stunted,"Palmer amaranth; protocol 1, 0.29 g/acre, copy number 33, 54, 55, 18 DAT",71%
same,Results: % stunted,"Palmer amaranth; protocol 1, 0.29 g/acre, copy number 34, 36, 54, 22 DAT",14.1%
same,Results: % killed,"Palmer amaranth; protocol 1, 2.9 g/acre each, copy number 34, 36, 54, 22 DAT",100% kill
same,Results: % killed,"Palmer amaranth; protocol 1, 2.9 g/acre, copy number 33, 54, 55, 18 DAT",100% killed
B1,bleaching of leaves,[2],showed bleaching of leaves
same,bleaching of leaves (FIG. 17),[2],showed bleaching of leaves
B2,bleaching of leaves,[2],showed bleaching of leaves
same,bleaching of leaves (FIG. 17),[2],showed bleaching of leaves
B3,bleaching of leaves,[2],did not show bleaching of leaves
same,plant outcome,[3],one half of the treated plants appeared to be dead and the other half of the plants had most of the above ground tissues bleached
same,"phytoene desaturase silencing, leaf bleaching",[3],visible leaf bleaching on apical leaves
same,"Northern blot analysis, siRNAs corresponding to the dsRNAs",[3],presence of siRNAs
B4,growth reduction relative to the buffer-surfactant control,[1]; ssDNA pre-treatment without herbicide,32%
same,Palmer amaranth plant height,"[1]; ssDNA pre-treatment without herbicide, 40 microliters per plant in 0.5% Silwet L-77 and 2% ammonium sulfate, buffer-surfactant control 185 mm",125 mm
B5,bleaching of leaves,[2],did not show bleaching of leaves
same,plant outcome,[3],one half of the treated plants appeared to be dead and the other half of the plants had most of the above ground tissues bleached
same,"phytoene desaturase silencing, leaf bleaching",[3],visible leaf bleaching on apical leaves
same,"Northern blot analysis, siRNAs corresponding to the dsRNAs",[3],presence of siRNAs
